Data from US20140114054A1 (UNIVERSITY OF MIYAZAKI, published 2014).

Biological target: human TfR on TfR-expressing cells (human, UniProt P02786 1-760)
Assay: cell-based or functional assay

Sequence of human TfR on TfR-expressing cells (P02786 whole entry): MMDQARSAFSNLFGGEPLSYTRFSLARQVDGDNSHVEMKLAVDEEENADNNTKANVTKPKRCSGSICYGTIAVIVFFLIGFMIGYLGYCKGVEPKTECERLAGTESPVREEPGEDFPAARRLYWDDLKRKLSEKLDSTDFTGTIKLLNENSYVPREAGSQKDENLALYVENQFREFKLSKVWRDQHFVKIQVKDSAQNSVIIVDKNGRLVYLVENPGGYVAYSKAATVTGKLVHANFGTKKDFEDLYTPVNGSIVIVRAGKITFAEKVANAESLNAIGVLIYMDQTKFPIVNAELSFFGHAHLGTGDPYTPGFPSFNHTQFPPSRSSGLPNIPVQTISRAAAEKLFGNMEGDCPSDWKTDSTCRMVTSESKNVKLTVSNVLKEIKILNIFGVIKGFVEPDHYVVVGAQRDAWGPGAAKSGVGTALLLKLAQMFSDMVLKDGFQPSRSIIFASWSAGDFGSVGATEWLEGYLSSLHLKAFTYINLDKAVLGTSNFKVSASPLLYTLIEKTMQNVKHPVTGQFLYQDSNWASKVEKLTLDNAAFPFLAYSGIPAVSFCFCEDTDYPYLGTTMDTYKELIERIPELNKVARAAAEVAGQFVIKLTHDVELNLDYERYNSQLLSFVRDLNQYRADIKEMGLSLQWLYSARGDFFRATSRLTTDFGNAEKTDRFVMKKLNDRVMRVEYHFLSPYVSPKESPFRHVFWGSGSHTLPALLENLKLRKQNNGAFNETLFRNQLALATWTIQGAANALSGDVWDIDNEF

B1: TfR006 IgG antibody (antibody, V domains shown)
VH: QVQLVQSGGGVVQPGRSLRLSCAASGFPFKSYGMHWVRQAPGKGLEWVAVISFDGSSKYYADSVKGRFTISRDNSKNTLYLQMNSLRGEDTAVYYCARDSNFWSGYYSPVDVWGQGTTVTVSS
VL: NFMLTQPHSVSESPGKTVTISCTRSSGSIASNSVQWYQQRPGSAPITVIYEDTQRPSGVPDRFSGSIDSSSNSASLTISGLQTEDEADYYCQSYDSAYHWVFGGGTKLAVL
IC50 (ng/ml) of cell growth, A431: 36 ng/mL
IC50 (ng/ml) of cell growth, A549: 41 ng/mL
IC50 (ng/ml) of cell growth, BFTC905: 44 ng/mL
IC50 (ng/ml) of cell growth, DU145: 33 ng/mL
IC50 (ng/ml) of cell growth, HT29: 25 ng/mL
IC50 (ng/ml) of cell growth, K562: 50 ng/mL
IC50 (ng/ml) of cell growth, KLM1: 30 ng/mL
IC50 (ng/ml) of cell growth, MIAPaCa-2: 55 ng/mL
IC50 (ng/ml) of cell growth, MKN45: 26 ng/mL
IC50 (ng/ml) of cell growth, MT-2: 71 ng/mL
IC50 (ng/ml) of cell growth, NCI-H358: 37 ng/mL
IC50 (ng/ml) of cell growth, NCI-H1373: 127 ng/mL
IC50 (ng/ml) of cell growth, PK45-P: 100 ng/mL
IC50 (ng/ml) of cell growth, RAMOS: 8 ng/mL
